Laboratory results: patent US20220348661A1 (HARBOUR BIOMED SHANGHAI, published 2022)

Tests used:
human CD3 [1] = target: T1, human CD3 (human, UniProt P07766 23-207; P09693 23-182; P04234 22-171; P20963 22-164); assay: flow cytometry on recombinant CHOK1 cells overexpressing human CD3
T1 construct: whole, on cells; SP34 is described as an anti-human CD3e antibody; also called human TCR/CD3 complex; CD3 on human pan-T cells
Excerpt: The flow cytometryFACS was used to analyse the binding of the CD3 antibody to CD3-expressing cells, where the CD3-expressing cells could be: CHOK1 cells overexpressing human CD3 or HEK 293 cells (plasmids encoding the ORF of γ, δ, ε, and ζ chains of human-derived CD3 and plasmids encoding the ORF of α and β chains of human TCR were co-transfected with host cells CHOK1 (ATCC, CCL-61) or HEK293 (ATCC, CRL-1573) to construct stable cell lines expressing the structure of the human TCR/CD3 complex); CHOK1 or HEK293 cells overexpressing cynomolgus monkey CD3; human pan-T cells (isolated with the human pan-T cell isolation kit (Miltenyi, #130-096-535) from PBMC); cynomolgus monkey pan-T cells. Specifically, the collected cells were washed twice with PBS containing 2% FBS (FACS buffer), and resuspended with FACS buffer, divided into 96 well plates with 1×10⁵ cells per well, centrifuged at 500 g for 5 minutes. The supernatant was discarded, and 100 μl of pre-gradient diluted CD3 antibody was added, then incubating for 1 hour at room temperature and washing twice with FACS buffer. […] The fluorescent luminescence signal value were read by flow cytometry (BD FACS CANTOII or ACEA NovoCyte), and the resulted data were processed and analyzed by software FlowJo v10 (FlowJo, LLC). […]

human CD3 [2] = target: T1, human CD3; assay: flow cytometry on human pan-T cells; MFI at 7.4 or 10 µg/ml relative to PR000260
Excerpt: The flow cytometryFACS was used to analyse the binding of the CD3 antibody to CD3-expressing cells, where the CD3-expressing cells could be: CHOK1 cells overexpressing human CD3 or HEK 293 cells (plasmids encoding the ORF of γ, δ, ε, and ζ chains of human-derived CD3 and plasmids encoding the ORF of α and β chains of human TCR were co-transfected with host cells CHOK1 (ATCC, CCL-61) or HEK293 (ATCC, CRL-1573) to construct stable cell lines expressing the structure of the human TCR/CD3 complex); CHOK1 or HEK293 cells overexpressing cynomolgus monkey CD3; human pan-T cells (isolated with the human pan-T cell isolation kit (Miltenyi, #130-096-535) from PBMC); cynomolgus monkey pan-T cells. Specifically, the collected cells were washed twice with PBS containing 2% FBS (FACS buffer), and resuspended with FACS buffer, divided into 96 well plates with 1×10⁵ cells per well, centrifuged at 500 g for 5 minutes. The supernatant was discarded, and 100 μl of pre-gradient diluted CD3 antibody was added, then incubating for 1 hour at room temperature and washing twice with FACS buffer. The cells were resuspended with FACS buffer diluted with secondary antibody Alexa Fluor 488 AffiniPure Goat Anti-Human IgG, Fcγ fragment specific (Jackson ImmunoResearch, #109-545-098), then incubated at room temperature in the dark for 30 minutes. The cells were washed twice with FACS buffer, and resuspended with 200 μl FACS buffer. The fluorescent luminescence signal value were read by flow cytometry (BD FACS CANTOII or ACEA NovoCyte), and the resulted data were processed and analyzed by software FlowJo v10 (FlowJo, LLC). The software GraphPad Prism 8 was used for data processing and graphical analysis, and parameters such as binding curves and EC50 values can be obtained by four-parameter nonlinear fitting.
FIG. 7(A) to (G) show the binding ability of the CD3 antibodies obtained in the Example 4.2 (including PR000260 and its mutants) to human pan-T cells, respectively. The fluorescence intensity MFI of the CD3 antibody binding to human pan-T cells and the relative ratio relative to the initial antibody PR000260 were calculated when the antibody concentration was 7.4 or 10 μg/ml.

human ROR1 = target: T2, human ROR1 (human, UniProt Q01973 30-937); assay: flow cytometry on Panc-1 cells expressing human ROR1
T2 construct: whole, on cells; also called ROR1 on tumor cell Panc-1
T2 sequence (Q01973 30-937): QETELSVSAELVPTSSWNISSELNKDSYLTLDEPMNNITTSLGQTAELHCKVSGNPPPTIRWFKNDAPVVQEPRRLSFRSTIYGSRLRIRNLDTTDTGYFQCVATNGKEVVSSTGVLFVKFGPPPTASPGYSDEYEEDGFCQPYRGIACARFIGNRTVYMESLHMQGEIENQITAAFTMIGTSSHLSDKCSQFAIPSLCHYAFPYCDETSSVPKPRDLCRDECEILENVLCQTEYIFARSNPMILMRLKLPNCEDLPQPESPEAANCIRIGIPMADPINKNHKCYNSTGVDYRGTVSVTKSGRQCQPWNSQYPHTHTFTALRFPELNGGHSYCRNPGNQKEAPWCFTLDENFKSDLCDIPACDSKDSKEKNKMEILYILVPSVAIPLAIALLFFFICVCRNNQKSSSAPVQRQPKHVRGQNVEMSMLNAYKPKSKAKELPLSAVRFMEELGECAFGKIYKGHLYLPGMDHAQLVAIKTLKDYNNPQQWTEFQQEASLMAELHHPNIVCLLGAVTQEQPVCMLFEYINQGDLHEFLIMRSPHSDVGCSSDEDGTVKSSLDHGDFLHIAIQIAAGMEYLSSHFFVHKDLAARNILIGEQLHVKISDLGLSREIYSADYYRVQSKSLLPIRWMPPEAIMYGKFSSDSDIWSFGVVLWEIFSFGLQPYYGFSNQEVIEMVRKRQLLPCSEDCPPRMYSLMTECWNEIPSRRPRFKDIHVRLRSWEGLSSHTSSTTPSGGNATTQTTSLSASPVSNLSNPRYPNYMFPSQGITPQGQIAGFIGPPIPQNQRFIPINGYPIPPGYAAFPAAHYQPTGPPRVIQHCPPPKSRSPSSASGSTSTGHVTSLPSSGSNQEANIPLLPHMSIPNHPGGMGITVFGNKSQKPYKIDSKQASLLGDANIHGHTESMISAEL
Protocol: (§1) This Example investigates the ability of the bispecific antibody binding tumor cell Panc-1(ATCC, CRL-1469) expressing human ROR1. Specifically, collected cell Panc-1 suspension, adjusted the cell density to 1×10⁶/ml, and inoculated them at 100 μl/well in a 96 well V-bottom plate (Corning, #3894); subsequently, the antibody to be tested with a concentration 2-fold of final concentration obtained by 3-fold gradient dilution was added at volume of 100 μl/well. Cells were incubated at 4° C. in the dark for 2 hours. Afterwards, the cells were rinsed twice with 100 μl/well of pre-chilled PBS, centrifuged at 500 g, 4° C. for 5 minutes. The supernatant was discarded. Then added 100 μl/well of fluorescent secondary antibody Alexa Fluor 488 AffiniPure Goat Anti-Human IgG, Fcγ fragment specific (Jackson ImmunoResearch, #109-545-098), and incubated the cells from light at 4° C. in the dark for 1 hour. Then the cells were rinsed twice with 100 μl/well of pre-chilled PBS, centrifuged at 500 g, for 5 minutes. The supernatant was discarded. Finally, the cells were resuspended with 200 μL/well of pre-chilled PBS. The fluorescent luminescence signal value were read by flow cytometry (BD FACS CANTOII or ACEA NovoCyte), and the resulted data were processed and analyzed by software FlowJo v10 (FlowJo, LLC). […]

human B7H4 = target: T3, human B7H4 (human, UniProt Q7Z7D3 25-282); assay: flow cytometry on SK-BR-3 cells expressing human B7H4
T3 construct: whole, on cells; also called B7H4 on tumor cell SK-BR-3
T3 sequence (looked up): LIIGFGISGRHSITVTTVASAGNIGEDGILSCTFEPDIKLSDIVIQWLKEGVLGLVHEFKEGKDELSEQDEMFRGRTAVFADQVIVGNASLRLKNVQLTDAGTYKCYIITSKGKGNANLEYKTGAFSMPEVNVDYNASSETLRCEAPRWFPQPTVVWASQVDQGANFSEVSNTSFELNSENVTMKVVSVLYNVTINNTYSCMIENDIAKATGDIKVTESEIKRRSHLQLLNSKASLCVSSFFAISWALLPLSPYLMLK
Protocol: as §1, with “SK-BR-3 (ATCC, HTB-30)” for “Panc-1(ATCC, CRL-1469)”, “B7H4.” for “ROR1.”, “SK-BR-3” for “Panc-1”, “of” for “of fluorescent”

human CD3 [3] = target: T1, human CD3; assay: flow cytometry on human pan-T cells

T1 sequence (P07766 23-207, chain 1 of 4): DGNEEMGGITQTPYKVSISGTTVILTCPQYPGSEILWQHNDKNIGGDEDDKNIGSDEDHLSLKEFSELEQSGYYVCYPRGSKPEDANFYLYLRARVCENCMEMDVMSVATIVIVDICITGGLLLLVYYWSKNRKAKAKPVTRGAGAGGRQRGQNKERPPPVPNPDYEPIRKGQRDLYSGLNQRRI
T1 sequence (P09693 23-182, chain 2 of 4): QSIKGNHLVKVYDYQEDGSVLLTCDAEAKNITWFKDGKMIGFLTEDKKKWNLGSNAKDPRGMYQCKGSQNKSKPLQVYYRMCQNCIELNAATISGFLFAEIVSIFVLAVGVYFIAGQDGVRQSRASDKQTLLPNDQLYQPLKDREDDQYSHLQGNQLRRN
T1 sequence (P04234 22-171, chain 3 of 4): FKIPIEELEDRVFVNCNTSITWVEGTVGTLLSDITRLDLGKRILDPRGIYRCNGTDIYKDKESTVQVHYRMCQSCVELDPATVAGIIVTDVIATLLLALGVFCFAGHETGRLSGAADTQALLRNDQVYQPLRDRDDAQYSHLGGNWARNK
T1 sequence (P20963 22-164, chain 4 of 4): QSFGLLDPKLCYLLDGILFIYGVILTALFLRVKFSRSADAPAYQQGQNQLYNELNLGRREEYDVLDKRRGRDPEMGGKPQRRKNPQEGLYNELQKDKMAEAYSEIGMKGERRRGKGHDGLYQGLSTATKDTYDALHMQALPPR

B1: SP34 murine-human chimeric recombinant antibody PR000260 (antibody, human IgG1, lambda, L234A L235A, V domains shown)
VH: EVQLVESGGGLVQPKGSLKLSCAASGFTFNTYAMNWVRQAPGKGLEWVARIRSKYNNYATYYADSVKDRFTISRDDSQSILYLQMNNLKTEDTAMYYCVRHGNFGNSYVSWFAYWGQGTLVTVSA
VL: QAVVTQESALTTSPGETVTLTCRSSTGAVTTSNYANWVQEKPDHLFTGLIGGTNKRAPGVPARFSGSLIGDKAALTITGAQTEDEAIYFCALWYSNLWVFGGGTKLTVLG
notes: IgG1 LALA, lambda; made in HEK293; also called SP34 chimeric antibody; PR000260(SP34)
binding result (human CD3 [1]): binds

B2: PR002472 (antibody, human IgG1, kappa, L234A L235A, V domains shown)
VH: EVQLLESGGGLVQPGGSLRLSCAASGFTFNTYAMNWVRQAPGKGLEWVSRIRSKYNNYATYYADSVKDRFTISRDNSKNTLYLQMNSLRAEDTAVYYCAKHGNFGNSYVSWFAYWGQGTLVTVSS
VL: DAQMTQSPSSLSASVGDRVTITCRSSTGAVTTSNYANWVQQKPGKAPKGLIGGTNKRAPGVPSRFSGSLSGDDATLTISSLQPEDFATYFCALWYSNLWVFGGGTKVEIKR
notes: humanized SP34 variant, IgG1 LALA; very low expression yield; also called VH3230/VK1393 IgG
binding result (human CD3 [2]): binds

B3: ROR1 antibody PR000374 (antibody, human IgG1, kappa, V domains shown)
VH: EVQLVESGGGLVQPGRSLRLSCTASGSDINDYPITWVRQAPGQGLEWIGFINSGGSTWYASWVKGRFTISRDDSKSIAYLQMNSLKTEDTAVYYCARGYSTYYRDFNIWGQGTLVTVSS
VL: DIQMTQSPSSLSASVGDRVTINCQASQSIDSNLAWFQQKPGQPPKLLIYRASNLASGVPDRFSGSGSGTDFTLTISSLEAEDVATYYCLGGVGAVSYRTSFGGGTKVEIKR
notes: variable region derived from WO2016094873; also called recombinant IgG antibody PR000374
binding result (human ROR1): binds

B4: B7H4 antibody PR000014 (antibody, V domains shown)
VH: EVQLVQSGAEVKKPGASVKVSCKASGYTFTSYWIGWVRQAPGQGLEWIGDIYPGGGYTNYNEKFKGRVTITRDTSTSTAYLELSSLRSEDTAVYYCARLAGSSYRGAMDSWGQGTLVTVSS
VL: DIQMTQSPSSLSASVGDRVTITCKASQGFNKYVAWYQQKPGKAPKLLIYYTSTLQPGVPSRFSGSGSGRDYTLTISSLQPEDFATYYCLQYGDLLYAFGQGTKVEIKR
notes: variable region derived from WO2016040724; also called recombinant IgG antibody PR000014
binding result (human B7H4): binds

B5: bispecific antibody PR002883 targeting B7H4xCD3 (bispecific antibody)
heavy 1: QAVVTQEPSLTVSPGGTVTLTCRSSTGAVTTSNYANWVQQKPGQAPRGLIGGTNKRAPWTPARFSGSLLGDKAALTLLGAQPEDEAEYFCALWYSNLWVFGGGTKLTVLGGGQSGQGGSGGGGSEVQLVESGGGLVQPGGSLKLSCAASGFTFNTYAMNWVRQASGKGLEWVGRIRSKYNNYATYYADSVKDRFTISRDDSKSTLYLQMNSLKTEDTAVYYCVRHGNFGNSYVSWFAYWGQGTLVTVSSASEPKSSDKTHTCPPCPAPEAAGGPSVFLFPPKPKDTLMISRTPEVTCVVVDVSHEDPEVKFNWYVDGVEVHNAKTKPREEQYNSTYRVVSVLTVLHQDWLNGKEYKCKVSNKALGAPIEKTISKAKGQPREPQVYTLPPCREEMTKNQVSLWCLVKGFYPSDIAVEWESNGQPENNYKTTPPVLDSDGSFFLYSKLTVDKSRWQQGNVFSCSVMHEALHNHYTQKSLSLSPGK
heavy 2: EVQLVQSGAEVKKPGASVKVSCKASGYTFTSYWIGWVRQAPGQGLEWIGDIYPGGGYTNYNEKFKGRVTITRDTSTSTAYLELSSLRSEDTAVYYCARLAGSSYRGAMDSWGQGTLVTVSSASTKGPSVFPLAPSSKSTSGGTAALGCLVKDYFPEPVTVSWNSGALTSGVHTFPAVLQSSGLYSLSSVVTVPSSSLGTQTYICNVNHKPSNTKVDKKVEPKSCDKTHTCPPCPAPEAAGGPSVFLFPPKPKDTLMISRTPEVTCVVVDVSHEDPEVKFNWYVDGVEVHNAKTKPREEQYNSTYRVVSVLTVLHQDWLNGKEYKCKVSNKALGAPIEKTISKAKGQPREPQVCTLPPSREEMTKNQVSLSCAVKGFYPSDIAVEWESNGQPENNYKTTPPVLDSDGSFFLVSKLTVDKSRWQQGNVFSCSVMHEALHNHYTQKSLSLSPGK
light: DIQMTQSPSSLSASVGDRVTITCKASQGFNKYVAWYQQKPGKAPKLLIYYTSTLQPGVPSRFSGSGSGRDYTLTISSLQPEDFATYYCLQYGDLLYAFGQGTKVEIKRTVAAPSVFIFPPSDEQLKSGTASVVCLLNNFYPREAKVQWKVDNALQSGNSQESVTEQDSKDSTYSLSSTLTLSKADYEKHKVYACEVTHQGLSSPVTKSFNRGEC
notes: asymmetric three-chain structure, LALAPG; SDS-PAGE purity 70% after one-step purification; also called B7H4×CD3 bispecific antibody
binding result (human CD3 [3]): binds

B6: bispecific antibody PR002885 targeting ROR1xCD3 (bispecific antibody, human IgG1, kappa, L234A L235A)
heavy 1: B5 heavy 1
heavy 2: EVQLVESGGGLVQPGRSLRLSCTASGSDINDYPITWVRQAPGQGLEWIGFINSGGSTWYASWVKGRFTISRDDSKSIAYLQMNSLKTEDTAVYYCARGYSTYYRDFNIWGQGTLVTVSSASTKGPSVFPLAPSSKSTSGGTAALGCLVKDYFPEPVTVSWNSGALTSGVHTFPAVLQSSGLYSLSSVVTVPSSSLGTQTYICNVNHKPSNTKVDKKVEPKSCDKTHTCPPCPAPEAAGGPSVFLFPPKPKDTLMISRTPEVTCVVVDVSHEDPEVKFNWYVDGVEVHNAKTKPREEQYNSTYRVVSVLTVLHQDWLNGKEYKCKVSNKALGAPIEKTISKAKGQPREPQVCTLPPSREEMTKNQVSLSCAVKGFYPSDIAVEWESNGQPENNYKTTPPVLDSDGSFFLVSKLTVDKSRWQQGNVFSCSVMHEALHNHYTQKSLSLSPGK
light: DIQMTQSPSSLSASVGDRVTINCQASQSIDSNLAWFQQKPGQPPKLLIYRASNLASGVPDRFSGSGSGTDFTLTISSLEAEDVATYYCLGGVGAVSYRTSFGGGTKVEIKRTVAAPSVFIFPPSDEQLKSGTASVVCLLNNFYPREAKVQWKVDNALQSGNSQESVTEQDSKDSTYSLSSTLTLSKADYEKHKVYACEVTHQGLSSPVTKSFNRGEC
notes: asymmetric three-chain structure, LALAPG; SDS-PAGE purity 70% after one-step purification; also called ROR1×CD3 bispecific antibody
binding result (human CD3 [3]): binds
